T1: muCDH19(44-461)::huCDH19(464-772), Flag-tagged, on 293T cells (human/mouse chimera)
T1 construct: also called Hu EC5; C137915
T1 chain: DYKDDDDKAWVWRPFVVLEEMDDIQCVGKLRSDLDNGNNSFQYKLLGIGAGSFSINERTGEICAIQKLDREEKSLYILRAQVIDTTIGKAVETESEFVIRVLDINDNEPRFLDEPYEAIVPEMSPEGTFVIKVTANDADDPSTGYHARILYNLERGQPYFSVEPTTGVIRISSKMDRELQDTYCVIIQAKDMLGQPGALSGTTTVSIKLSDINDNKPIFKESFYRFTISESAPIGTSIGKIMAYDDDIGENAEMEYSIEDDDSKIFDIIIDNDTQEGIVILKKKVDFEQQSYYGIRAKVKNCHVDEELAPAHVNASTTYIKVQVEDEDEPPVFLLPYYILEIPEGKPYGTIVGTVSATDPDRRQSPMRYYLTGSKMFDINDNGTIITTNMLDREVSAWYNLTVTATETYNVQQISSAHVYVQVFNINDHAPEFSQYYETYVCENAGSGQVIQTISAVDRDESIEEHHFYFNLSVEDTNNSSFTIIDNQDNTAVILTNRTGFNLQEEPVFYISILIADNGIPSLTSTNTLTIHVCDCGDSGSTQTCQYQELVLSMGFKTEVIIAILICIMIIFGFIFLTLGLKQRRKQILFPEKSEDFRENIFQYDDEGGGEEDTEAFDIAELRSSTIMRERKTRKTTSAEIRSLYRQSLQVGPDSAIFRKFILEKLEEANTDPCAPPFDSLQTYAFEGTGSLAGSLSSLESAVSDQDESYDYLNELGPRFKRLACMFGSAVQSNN

T2: muCDH19(44-770), Flag-tagged, on 293T cells (mouse)
T2 construct: also called Mu EC1-5
T2 chain: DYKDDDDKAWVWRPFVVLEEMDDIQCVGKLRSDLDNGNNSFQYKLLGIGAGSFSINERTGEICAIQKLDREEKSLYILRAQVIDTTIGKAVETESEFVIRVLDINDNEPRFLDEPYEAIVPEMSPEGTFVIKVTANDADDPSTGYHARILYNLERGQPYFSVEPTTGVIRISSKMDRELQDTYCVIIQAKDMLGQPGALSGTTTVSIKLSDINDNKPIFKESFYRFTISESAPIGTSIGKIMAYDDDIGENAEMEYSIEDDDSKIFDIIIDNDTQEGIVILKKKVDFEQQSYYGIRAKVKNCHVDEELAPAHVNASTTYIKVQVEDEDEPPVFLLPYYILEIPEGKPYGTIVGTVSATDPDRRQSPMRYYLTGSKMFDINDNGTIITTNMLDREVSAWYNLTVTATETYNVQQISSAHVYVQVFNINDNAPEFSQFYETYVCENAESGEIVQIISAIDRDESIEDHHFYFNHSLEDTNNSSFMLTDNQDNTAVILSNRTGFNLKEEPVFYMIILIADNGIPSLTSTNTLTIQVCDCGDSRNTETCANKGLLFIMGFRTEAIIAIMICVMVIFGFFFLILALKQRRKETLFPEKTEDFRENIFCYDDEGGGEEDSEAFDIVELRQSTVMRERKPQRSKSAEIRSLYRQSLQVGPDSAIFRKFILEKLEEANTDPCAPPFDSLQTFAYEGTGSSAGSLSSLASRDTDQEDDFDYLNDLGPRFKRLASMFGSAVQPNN

T3: muCDH19(44-362)::huCDH19(365-772), Flag-tagged, on 293T cells (human/mouse chimera)
T3 construct: also called Hu EC4-5; C137917
T3 chain: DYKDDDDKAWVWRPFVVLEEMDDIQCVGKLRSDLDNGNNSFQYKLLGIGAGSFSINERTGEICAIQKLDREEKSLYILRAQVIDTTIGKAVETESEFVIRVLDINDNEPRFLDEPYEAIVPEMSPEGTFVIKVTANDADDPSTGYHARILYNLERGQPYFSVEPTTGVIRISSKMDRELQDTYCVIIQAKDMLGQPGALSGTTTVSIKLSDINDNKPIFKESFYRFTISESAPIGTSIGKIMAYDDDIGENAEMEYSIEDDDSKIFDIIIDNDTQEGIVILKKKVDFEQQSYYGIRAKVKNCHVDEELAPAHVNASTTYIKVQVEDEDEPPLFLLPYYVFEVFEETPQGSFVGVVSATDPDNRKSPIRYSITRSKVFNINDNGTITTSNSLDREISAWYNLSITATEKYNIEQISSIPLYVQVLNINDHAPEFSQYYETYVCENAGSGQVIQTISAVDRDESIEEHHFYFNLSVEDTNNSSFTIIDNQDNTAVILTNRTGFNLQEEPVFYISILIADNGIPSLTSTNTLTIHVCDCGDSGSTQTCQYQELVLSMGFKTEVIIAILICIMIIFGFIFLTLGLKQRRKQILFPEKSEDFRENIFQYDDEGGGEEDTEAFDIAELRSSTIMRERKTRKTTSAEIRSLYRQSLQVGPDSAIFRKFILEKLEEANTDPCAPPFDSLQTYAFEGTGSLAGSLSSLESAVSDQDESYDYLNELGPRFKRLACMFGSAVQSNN

T4: muCDH19(44-139)::huCDH19(142-249)::muCDH19(248-770), Flag-tagged, on 293T cells (human/mouse chimera)
T4 construct: also called Hu EC2; C137913
T4 chain: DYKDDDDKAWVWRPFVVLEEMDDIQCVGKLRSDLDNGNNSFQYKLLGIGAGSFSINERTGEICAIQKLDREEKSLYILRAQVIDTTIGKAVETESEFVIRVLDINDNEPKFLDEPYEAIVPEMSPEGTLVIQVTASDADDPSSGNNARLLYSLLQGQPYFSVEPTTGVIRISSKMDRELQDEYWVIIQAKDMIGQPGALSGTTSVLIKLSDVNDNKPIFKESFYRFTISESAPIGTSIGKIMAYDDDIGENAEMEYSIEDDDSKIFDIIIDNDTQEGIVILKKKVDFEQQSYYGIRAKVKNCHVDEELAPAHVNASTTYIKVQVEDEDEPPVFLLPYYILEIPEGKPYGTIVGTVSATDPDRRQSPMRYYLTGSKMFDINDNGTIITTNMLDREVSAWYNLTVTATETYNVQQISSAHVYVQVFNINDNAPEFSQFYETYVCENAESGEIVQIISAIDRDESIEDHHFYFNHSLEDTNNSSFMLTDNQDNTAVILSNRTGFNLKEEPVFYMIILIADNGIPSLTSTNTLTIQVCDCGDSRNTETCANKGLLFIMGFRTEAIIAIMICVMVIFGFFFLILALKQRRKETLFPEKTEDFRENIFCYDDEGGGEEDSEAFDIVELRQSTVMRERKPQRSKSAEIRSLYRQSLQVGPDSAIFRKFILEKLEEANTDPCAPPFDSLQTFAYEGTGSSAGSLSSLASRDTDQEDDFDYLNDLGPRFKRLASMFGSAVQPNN

T5: Cyno Cadherin-19 (cynomolgus monkey (Macaca fascicularis), UniProt Q9H159 44-772 (human entry))
T5 construct: also called cyno CDH19; cynomologous CDH-19
T5 chain: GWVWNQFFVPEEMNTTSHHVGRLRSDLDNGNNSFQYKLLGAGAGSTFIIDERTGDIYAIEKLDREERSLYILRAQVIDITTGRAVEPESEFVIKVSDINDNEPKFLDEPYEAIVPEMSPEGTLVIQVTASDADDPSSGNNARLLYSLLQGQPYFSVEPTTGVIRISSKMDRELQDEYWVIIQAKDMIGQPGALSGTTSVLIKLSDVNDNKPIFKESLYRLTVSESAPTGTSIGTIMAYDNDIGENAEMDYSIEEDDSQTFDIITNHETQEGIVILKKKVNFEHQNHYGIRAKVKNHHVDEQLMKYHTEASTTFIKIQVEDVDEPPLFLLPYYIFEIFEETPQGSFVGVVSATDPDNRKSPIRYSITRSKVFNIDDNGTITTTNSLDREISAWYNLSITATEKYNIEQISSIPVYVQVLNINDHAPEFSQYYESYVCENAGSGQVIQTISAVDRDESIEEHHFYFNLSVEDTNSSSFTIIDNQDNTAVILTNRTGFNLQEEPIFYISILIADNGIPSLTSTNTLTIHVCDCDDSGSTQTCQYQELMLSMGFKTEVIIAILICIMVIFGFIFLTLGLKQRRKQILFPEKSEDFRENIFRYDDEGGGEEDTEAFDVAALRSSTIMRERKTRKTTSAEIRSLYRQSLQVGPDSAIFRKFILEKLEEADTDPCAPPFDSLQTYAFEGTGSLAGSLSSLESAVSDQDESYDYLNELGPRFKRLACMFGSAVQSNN


Tests used:
[1] = target: T6, huCDH19(44-141)::muCDH19(140-770), Flag-tagged, on 293T cells (human/mouse chimera); assay: FACS, transfected 293T
T6 construct: also called Hu EC1
Text: (§1) The experiment included assaying the anti-CDH19 antibodies against mouse Cadherin19 to determine suitability for binning on these human/mouse chimeras.

[2] = target: T7, muCDH19(44-139)::huCDH19(142-364)::muCDH19(363-770), Flag-tagged, on 293T cells (human/mouse chimera); assay: FACS, transfected 293T
T7 construct: also called Hu EC2-3; C137847
Text: as §1

[3] = target: T8, huCDH19(44-772), Flag-tagged, on 293T cells (human, UniProt Q9H159 44-772); assay: FACS, transfected 293T
T8 construct: Expressed with native leader (1-43) followed by a Flag tag; leader left out; also called Hu EC1-5
Text: as §1

[4] = target: T1, muCDH19(44-461)::huCDH19(464-772), …; assay: FACS, transfected 293T
Text: as §1

[5] = target: T2, muCDH19(44-770), Flag-tagged, on 293T …; assay: FACS, transfected 293T
Text: as §1

[6] = target: T9, muCDH19(44-247)::huCDH19(250-364)::muCDH19(363-770), Flag-tagged, on 293T cells (human/mouse chimera); assay: FACS, transfected 293T
T9 construct: also called Hu EC3; C137911
Text: as §1

[7] = target: T10, huCDH19(44-249)::muCDH19(248-770), Flag-tagged, on 293T cells (human/mouse chimera); assay: FACS, transfected 293T
T10 construct: also called Hu EC1-2; C137896
Text: as §1

[8] = target: T3, muCDH19(44-362)::huCDH19(365-772), …; assay: FACS, transfected 293T
Text: as §1

[9] = target: T4, muCDH19(44-139)::huCDH19(142-249)::muCDH …; assay: FACS, transfected 293T
Text: as §1

[10] = target: T11, Human Cadherin-19 (human, UniProt Q9H159 44-772); assay: FACS, endogenous and recombinant human CDH19
T11 construct: Residues 1-43 are named as the native leader in the construct designations and are left out; also called human CDH19; huCDH19
Experimental: (§2) FACS binding assays were performed to evaluate the binding of the anti-Cadherin-19 receptor specific antibodies to endogenous Cadherin-19 receptor expressed on the CHL-1 tumor cell lines.
(§3) FACs assays were performed by incubating hybridoma supernatants with 10,000 to 25,000 cells in PBS/2% Fetal bovine serum/2 mM Calcium Chloride at 4° C. for one hour followed by two washes with PBS/2% Fetal bovine serum/2 mM Calcium Chloride. Cells were then treated with florochrome-labeled secondary antibodies at 4° C. followed by one wash. The cells were resuspended in 50 μl of PBS/2% FBS and antibody binding was analyzed using a FACSCalibur™ instrument.

[11] = target: T5, Cyno Cadherin-19; assay: FACS, recombinant cyno CDH19
[12] = target: T11, Human Cadherin-19; assay: FACS, endogenous CDH19 on tumor cells and 293/CDH-19 transfectants
Experimental: as §2, §3

| binding result [1] | binding result [2] | binding result [3] | binding result [4] | binding result [5] | binding result [6] | binding result [7] | binding result [8] | binding result [9] | binding result [10] | binding result [11] | binding result [12] | Binder |
| --- | --- | --- | --- | --- | --- | --- | --- | --- | --- | --- | --- | --- |
| binds | binds | binds | binds | binds | binds | binds | binds | binds |  |  |  | hu anti-<huCDH19> 2G6 (1-477)(R17G,D61E,D72E,K94N) VH::huIgG1z / 2G6 (1-234)(C42S,D110E) VL::huLLC-C1 (Ab ID 14039) (antibody, V domains shown, Engineered variant of 2G6) VH: QVQLVESGGGVVQPGGSLRLSCAASGFTFSSYGMHWVRQAPGKGLEWVAFIWYEGSNKYYAESVKDRFTISRDNSKNTLYLQMNSLRAEDTAVYYCARRAGIIGTIGYYYGMDVWGQGTTVTVSS VL: SYELTQPPSVSVSPGQTASITCSGDRLGEKYTSWYQQRPGQSPLLVIYQDTKRPSGIPERFSGSNSGNTATLTISGTQAMDEADYYCQAWESSTVVFGGGTKLTVLG |
|  |  |  |  |  |  |  |  |  | binds | binds |  | anti-CDH19 antibody 23A10 (Ab ID 13884) (antibody, human IgG1, lambda, V domains shown) VH: QVQLVESGGGVVQPGRSLRLSCAASGFTFSRYGIHWVRQAPGKGLEWVAVIWYDGSNKYYADSVKGRFTISRDNSKNTLYLLMNSLRAEDSAVYYCARRAGIPGTTGYYYGMDVWGQGTTVTVSS VL: SYELTQPPSVSVSPGQTASITCSGDRLGEKYVCWYQQKPGQSPILVIYQDNKWPSGIPERFSGSNSGNTATLTISGTQAMDEADYYCQAWDSSTVVFGGGTKLTVLG |
|  |  |  |  |  |  |  |  |  |  | binds | binds | hu anti-<huCDH19> 22G10.1 VH::huIgG1z / 22G10.1 VL::huKLC (Ab ID 13877) (antibody, V domains shown) VH: EVQLLESGGGLVQPGGSLRLSCAASGFTFSSYAMNWVRQAPGKGLEWVSTISGGGANTYYADSVKGRFTISSDNSKSTLYLQMNSLRAADTAVYHCAKGGMGGYYYGMDVWGQGTTVTVSS VL: EIVMTQSPVTLSLSLGERATLSCRASQSISSNLAWFQQKPGQAPRLLIYGAFTRATGIPARVSGSGSGTEFTLTISSLQSEDFAVYYCQQYNYWPLTFGGGTKVEIKR |

From US20140322218A1 (Amgen, published 2014)
